Measured values reported in paper PMC3580387.

Molecular target: mCherry-Actin (UniProt P60709)
Experiment: FRET or BRET

| Substance | mean E% (FRET efficiency), Case 1 ROIs | mean E% (FRET efficiency), Case 2 ROIs | mean E% (FRET efficiency), Case 4 ROIs | mean E% (FRET efficiency), Case 3 ROIs |
| --- | --- | --- | --- | --- |
| TFP-N-WASP (Teal fluorescent protein fused to human N-WASP) (from UniProt O00401 1-505) (natural protein) | 20.3% | 27.9% | 25.2% |  |
| Venus-IQGAP1 (Venus fused to human IQGAP1) (from UniProt P46940 1-1657) (natural protein) | 29.6% | 25.4% |  | 39.3% |
